# Residue numbers refer to the chain shown, from its start.
# B1: H1L7 (antibody, human IgG1, kappa, V domains shown)
# VH: QVQLQESGPGLVKPSETLSLTCTVSGFSLTAYGVNWIRQPPGKGLEWIGMIWDDGSTDYNSALKSRVTISVDTSKNQFSLKLSSVTAADTAVYYCAREGDVAFDYWGQGTLVTVSS
# VL: DIQMTQSPSSLSASVGDRVTITCKSSQSLLNPSNQKNYLAWYQQKPGKAPKLLVYFASTRDSGVPSRFSGSGSGTDFTLTISSLQPEDFATYYCLQHFGTPPTFGQGTKLEIKR
# notes: Humanised anti-LAG-3 variant, HEK 293 6E expressed
# B2: J7L7 (antibody, human IgG1, kappa, V domains shown)
# VH: QVQLVQSGAEVKKPGSSVKVSCKASGFSLTAYGVNWVRQAPGQGLEWMGMIWDDGSTDYNSALKSRVTITADKSTSTAYMELSSLRSEDTAVYYCAREGDVAFDYWGQGTLVTVSS
# VL: B1 VL
# notes: as for B1
# B3: H0L7 (antibody, human IgG1, kappa, V domains shown)
# VH: B1 VH with F27G, L29I, T30S
# VL: B1 VL
# notes: as for B1
# B4: H2L7 (antibody, human IgG1, kappa, V domains shown)
# VH: B1 VH with V71K, T73N, F78V
# VL: B1 VL
# notes: as for B1
# B5: H4L7 (antibody, human IgG1, kappa, V domains shown)
# VH: B1 VH with I48L, V67L, V71K, T73N, F78V
# VL: B1 VL
# notes: as for B1
# B6: H7L7 (antibody, human IgG1, kappa, V domains shown)
# VH: B1 VH with F27G, L29I, T30S, N60D
# VL: B1 VL
# notes: as for B1
# B7: J11L7 (antibody, human IgG1, kappa, V domains shown)
# VH: B2 VH with N60D
# VL: B1 VL
# notes: as for B1
# B8: J13L7 (antibody, human IgG1, kappa, V domains shown)
# VH: B2 VH with F27G, S28T, L29F, T30S, N60D
# VL: B1 VL
# notes: as for B1
# B9: J0L7 (antibody, human IgG1, kappa, V domains shown)
# VH: B2 VH with F27G, S28T, L29F, T30S
# VL: B1 VL
# notes: as for B1
# Biological target: T1, Fc-tagged recombinant soluble LAG-3 (IMP321) (human, UniProt P18627 23-434)
# T1 construct: also called LAG3-Ig molecule IMP321; recombinant sLAG-3; not shown: Fc / Ig part
# T1 sequence (looked up): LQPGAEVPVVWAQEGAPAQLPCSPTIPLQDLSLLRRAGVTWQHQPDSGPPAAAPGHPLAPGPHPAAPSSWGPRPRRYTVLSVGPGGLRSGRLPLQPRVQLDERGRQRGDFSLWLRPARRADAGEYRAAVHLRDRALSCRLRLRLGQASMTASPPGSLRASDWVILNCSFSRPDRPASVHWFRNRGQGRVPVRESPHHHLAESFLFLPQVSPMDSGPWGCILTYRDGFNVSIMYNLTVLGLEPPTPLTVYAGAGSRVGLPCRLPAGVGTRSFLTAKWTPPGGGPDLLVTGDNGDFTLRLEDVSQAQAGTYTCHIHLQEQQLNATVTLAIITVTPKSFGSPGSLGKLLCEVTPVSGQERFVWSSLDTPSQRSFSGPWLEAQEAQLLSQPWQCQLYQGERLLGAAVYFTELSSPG
# Experiment: SPR Biacore 3000, off-rate comparison with IMP731, IMP321 analyte at 64 nM
# Description: The binding kinetics of the purified antibodies for a sLAG-3 molecule were assessed by SPR using a Biacore™ 3000. A goat anti-human kappa antibody (Southern Biotech, Catalogue No. 2060-01) was immobilised on a CM5 chip by primary amine coupling. Humanised anti-LAG3 antibodies were captured on this surface and the LAG3-Ig molecule IMP321 (Chrystelle Brignone, Caroline Grygar, Manon Marcu, Knut Schakel, Frederic Triebel, The Journal of Immunology, 2007, 179: 4202-4211) used as the analyte at 64 nM with a buffer injection (i.e. 0 nM) used to double reference the binding curves. Regeneration was with 10 mM Glycine, pH1.5. The run was carried out on the Biacore™ 3000, using HBS-EP as running buffer and at 25° C. Sensorgrams were normalised for binding at maximal association and off-rates compared against IMP731 by visual inspection of the sensorgram profiles.
row,Binder,Rank order of off-rates
1,B1,2
2,B2,3
3,B3,10
4,B4,6
5,B5,4
6,B6,8
7,B7,5
8,B8,7
9,B9,9

# — patent US20160017037A1 (GlaxoSmithKline, published 2016)
